Results on one protein are retold here after article PMC6517402 (Scientific Reports, 2019).

The data set deals with the molecule itself. Description: crystal structure; X-ray, 1.85 Å, SAD phasing with SeMet protein, then molecular replacement into the wild-type crystal; three molecules in the asymmetric unit.

B1: ORF212 tailspike protein (TSP3) of E. coli O157:H7 phage CBA120 (enzyme, UniProt G3M191 1-627, looked up)
chain: MISQFNQPRGSTSIEVNKQSIARNFGVKEDEVIYFTAGIDLSGFKVIYDESTQRAYSLPFGIVSGTTAISLDERAILTHSAGSVDLGELAVSREEYVTLPGSFNFGHTINVKNELLVHDDKKYRWDGSLPKVVAAGSTPDSSGGVGLGAWLSVGDAALRAELNTKVSDGTFPATIKYKYGLPSVIDGAIYRTVQDKLDDFVFLEDFGGKDDAGSTDNSIAFRKAFASGARKIRLRGSGVYGMATRDIELPAKYEIIGNAKNPEIKYLGTDTSFTMFTLTGSGPASNQWKQGGMFRDLIISSDVKINWMLGRHVQNLDYDRVFFYNSATVLNNYHYVNFTRCERWGSAFIGRADLNTIQFISESPKFHLCFSSGSPIDVWDTADLAITKCTMFAGDYAVRTRVTQKQVTAPDLFAGYPVLITCSVFDAVRGHAWDLEGSVYSTITGNLVSAGRDTNSHGAYIKGGRSLSLTGNVFTYCGNYGLVLEDVQQSGFVGNVFNGNKTGGLGTLACKDLSIVGGSMGTTYVRGGYYTQPVGYSDISSNSTGILLSGVAFDEALTTKVYLDTSITTRNKVINCSGVPDTIARGSTANRPANPQASYQYYDTTLGIPIWWNSVSGTWKNAAGADV
notes: also called CBA120 TSP3; wild-type TSP3
As for B1, the “stoichiometry N” value is 3.

The term stoichiometry N denotes the number of molecules, sites or subunits per partner or assembly.
